Among the targets are βI14-15 Y1866A; βI14-15 A1867P; βI14-15 D1700A; βI14-15 D1701A; βI14-15 E1703A; βI14-15 E1708A; βI14-15 E1710A; βI14-15 D1781A; βI14-15 E1784A.
What all share (test): ITC
On the technique in general: ITC needs no label: the signal is the heat of the interaction.

In assay [1] the target is βI14-15 T1788A.
Assay [2] concerns the target βI14-15 T1788A. The source holds these as a separate data set.
Assay [3] deals with wild type βI-spectrin 14-15 di-repeat.

Like-named read-outs stand apart in the source and are kept apart here.

B1: ZU5 domain of ankyrin (domain or fragment)
chain: FLVSFMVDARGGSMRGSRHNGLRVVIPPRTCAAPTRITCRLVKPQKLSTPPPLAEEEGLASRIIALGPTGAQFLSPVIVEIPHFASHGRGDRELVVLRSENGSVWKEHRSRYGESYLDQILNGMDEELGSLEELEKKRVCRIITTDFPLYFVIMSR
One may read the Kd as the equilibrium constant for the complex coming apart. Read a high Kd as lower affinity. On to B1, for which the Kd with βI14-15 T1788A [1] is 5800 nM; with βI14-15 T1788A [2] it was 5730 nM; with βI14-15 Y1866A, 22000 nM; in the assay with βI14-15 A1867P it was 14900 nM; in assay [3] it was 190 nM; with βI14-15 D1700A, 440 nM. The Kd turned out to be 360 nM with βI14-15 D1701A; 320 nM with βI14-15 E1703A; 430 nM with βI14-15 E1708A; 1700 nM with βI14-15 E1710A; 2100 nM with βI14-15 D1781A; 43400 nM with βI14-15 E1784A.

These data come from article PMC2839365 (Biochemical and biophysical research communications, 2010).
